From patent publication US20210139579A1 (NBE THERAPEUTICS, published 2021)

B1: ERR1-301 (mAb027) (antibody, human IgG1, V domains shown)
VH: QEQLEESGGGLVTPGGSLTLTCTASGFTISTYHMSWVRQAPGKGLEWIGSIYAGSGSTYYASWVNGRFTISSNTTQNTVSLQMNSLTVADTATYFCARDHPSYGMDLWGPGTLVTVSS
VL: SYELTQLPSVSVSLGQTARITCGGNSIGSKAVNWYQQKPGLAPGLLIYDDDERPSGVPDRFSASNSGDTATLTISGAQAEDEADYYCQLWDSSAVAYVFGGGTQLTVTG
notes: Chimeric rabbit/human IgG1, lambda; not shown: Strep tag
B2: ERR1-Top43 (mAb036) (antibody, human IgG1, V domains shown)
VH: QSLEESGGRLVTPGTPLTLTCTVSGFSLSSYWMSWVRQAPGKGLEWIGAIYGSGNTYYASWAKGRFTISKTSTTVDLKITSPTTEDTATYFCARDVHSTATDLWGPGTLVTISS
VL: SYELTQLPSVSVSLGQTARITCGGNNIGSKAVNWYQQKPGLAPGLLIYNDDERPSGVPDRFSGSNSGDTATLTISGAQAGDEADYYCQLWDSSAGAYVFGGGTQLTVTG
notes: as for B1
B3: ERR1-403 (mAb035) (antibody, human IgG1, V domains shown)
VH: QEQLKESGRGLVQPGGSLKLSCKASGFDFSGWYMTWVRQAPGKGLEWIGTIGTTKGRTYYASWVNGRFTISSDNAQNTVDLQMNSLTAADRATYFCVRGSDYFDLWGPGTLVTISS
VL: SYELTQLPSVSVSLGQTARITCGGNSIGSKAVNWYQQKPGLAPGLLIYDDDERPSGVPARFSGSNSGDTATLTISGAQAGDEADYYCQLWDSSAGAYVFGGGTQLTVTG
notes: as for B1
B4: 2A2 (mAb066) (antibody, human IgG1)
heavy: not shown
light: DIVMTQSQKIMSTTVGDRVSITCKASQNVDAAVAWYQQKPGQSPKLLIYSASNRYTGVPDRFTGSGSGTDFTLTISNMQSEDLADYFCQQYDIYPYTFGGGTKLEIKRTVAAPSVFIFPPSDEQLKSGTASVVCLLNNFYPREAKVQWKVDNALQSGNSQESVTEQDSKDSTYSLSSTLTLSKADYEKHKVYACEVTHQGLSSPVTKSFNRGECGGGGGSLPETG
notes: IgG with human IgG1 and kappa constant regions; also called anti-human ROR1 antibody 2A2; not shown: Strep tag
B5: ERR1-306 (mAb033) (antibody, human IgG1, V domains shown)
VH: QEQLKESGGGLVQPGGSLKLSCKASGFDLSNYGVSWVRQAPGKGLEWIGYIDPTFDYTYYASWVNGRFSISRENTQNTVSLQINSLTPADTATYFCARWVYGVDDYGDGNWLDLWGQGTLVTISS
VL: QFVLTQSPSVSAALGASAKLTCTLSSAHKTYTIDWYQQQQGEAPRYLMELKSDGSYTKGTGVPDRFSGSSSGADRYLIIPSVQADDEADYYCGTDYSGGYVFGGGTQLTVTG
notes: as for B1
B6: XBR1-402 (mAb031) (antibody, human IgG1, V domains shown)
VH: QEQQKESGGGLFKPTDTLTLTCTASGFDISSYYMSWVRQAPGNGLEWIGAIGISGNAYYASWAKSRSTITRNTNLNTVTLKMTSLTAADTATYFCARDHPTYGMDLWGPGTLVTVSS
VL: SYELTQLPSVSVSLGQTARITCEGNNIGSKAVHWYQQKPGLAPGLLIYDDDERPSGVPDRFSGSNSGDTATLTISGAQAGDEADYYCQVWDSSAYVFGGGTQLTVTG
notes: as for B1
B7: ERR1-324 (mAb034) (antibody, human IgG1)
heavy: not shown
light: ELVLTQTPSPVSAAVGGTVTINCQASQSVYGNNELAWYQQKPGQPPKLLIYRASILTSGVPSRFKGSGSGTQFTLTISNVQREDAATYYCLGGYVSQSYRAAFGGGTELEILRTVAAPSVFIFPPSDEQLKSGTASVVCLLNNFYPREAKVQWKVDNALQSGNSQESVTEQDSKDSTYSLSSTLTLSKADYEKHKVYACEVTHQGLSSPVTKSFNRGECGGGGGSLPETG
notes: Chimeric rabbit/human IgG1, kappa; not shown: Strep tag

How the values were obtained:
[1] = target: T1, Recombinant human twin strep-tagged ROR2 extracellular domain (human, UniProt Q01974 34-403); assay: ELISA on coated twin strep-tagged hROR2
T1 construct: extracellular domain; also called strep-tagged human ROR2; recombinant, purified hROR2
Experimental: (§1) Each well of a 96-well plate was coated with 100 μL of 2 μg/mL strep-tagged human ROR1 or ROR2 (from Example 5) in 0.1 M bicarbonate coating buffer (pH 9.6), and incubated for 12 h at 4° C.

[2] = target: T2, StrepII-tagged human ROR1-extracellular domain (human, UniProt Q01973 30-406); assay: ELISA on coated strep-tagged hROR1, detected with anti-human Fc-gamma HRP
T2 construct: also called strep-tagged human ROR1; recombinant, purified hROR1
Experimental: as §1

[3] = target: T3, human ROR1 (hROR1) on the cell surface (human, UniProt Q01973 30-937); assay: flow cytometry on human cancer cell lines, 2A2 at 2 µg/mL
T3 construct: whole, on cells; Endogenous on the human lines 697, MDA-MB-468, HS-578T, A549 and HT-29; ectopically expressed on murine EMT-6 cells (clone 14); also called full-length ROR1 (NP_005003.2)
T3 sequence (Q01973 30-937): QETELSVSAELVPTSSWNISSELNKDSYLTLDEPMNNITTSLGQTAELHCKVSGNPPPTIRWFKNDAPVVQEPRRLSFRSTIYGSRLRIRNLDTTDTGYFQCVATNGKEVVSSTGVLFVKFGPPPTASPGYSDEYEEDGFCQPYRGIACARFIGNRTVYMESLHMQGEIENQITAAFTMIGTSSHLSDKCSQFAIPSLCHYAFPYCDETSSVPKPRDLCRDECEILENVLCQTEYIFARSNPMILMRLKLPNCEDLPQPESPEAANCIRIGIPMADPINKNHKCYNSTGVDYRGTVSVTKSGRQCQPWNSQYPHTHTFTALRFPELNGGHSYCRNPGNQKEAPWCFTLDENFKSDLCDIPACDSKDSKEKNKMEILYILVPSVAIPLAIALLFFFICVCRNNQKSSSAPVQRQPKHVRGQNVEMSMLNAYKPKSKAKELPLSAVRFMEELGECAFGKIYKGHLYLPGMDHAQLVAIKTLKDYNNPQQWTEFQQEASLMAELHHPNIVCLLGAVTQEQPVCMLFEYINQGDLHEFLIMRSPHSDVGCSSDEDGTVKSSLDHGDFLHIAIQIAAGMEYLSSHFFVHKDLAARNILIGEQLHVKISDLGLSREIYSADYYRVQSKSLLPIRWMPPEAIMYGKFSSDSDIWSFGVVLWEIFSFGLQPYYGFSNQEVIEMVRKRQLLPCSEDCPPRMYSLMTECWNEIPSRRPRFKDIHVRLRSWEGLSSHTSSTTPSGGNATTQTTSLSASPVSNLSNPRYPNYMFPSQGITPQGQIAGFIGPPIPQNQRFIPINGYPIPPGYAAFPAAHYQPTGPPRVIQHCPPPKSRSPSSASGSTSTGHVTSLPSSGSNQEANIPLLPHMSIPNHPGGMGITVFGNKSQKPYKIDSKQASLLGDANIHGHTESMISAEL

T2 sequence (Q01973 other isoform, or with tags, fused parts or gaps): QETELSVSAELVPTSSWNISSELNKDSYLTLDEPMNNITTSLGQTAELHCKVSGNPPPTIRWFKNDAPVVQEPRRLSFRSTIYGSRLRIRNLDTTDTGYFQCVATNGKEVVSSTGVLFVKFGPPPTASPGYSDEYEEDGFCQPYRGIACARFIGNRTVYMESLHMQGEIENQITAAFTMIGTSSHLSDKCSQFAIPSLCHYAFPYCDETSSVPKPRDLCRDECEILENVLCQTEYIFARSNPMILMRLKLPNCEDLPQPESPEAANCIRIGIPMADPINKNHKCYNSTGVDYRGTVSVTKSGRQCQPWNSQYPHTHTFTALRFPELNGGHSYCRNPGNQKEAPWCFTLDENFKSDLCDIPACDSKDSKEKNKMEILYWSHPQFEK
T1 sequence (Q01974 other isoform, or with tags, fused parts or gaps): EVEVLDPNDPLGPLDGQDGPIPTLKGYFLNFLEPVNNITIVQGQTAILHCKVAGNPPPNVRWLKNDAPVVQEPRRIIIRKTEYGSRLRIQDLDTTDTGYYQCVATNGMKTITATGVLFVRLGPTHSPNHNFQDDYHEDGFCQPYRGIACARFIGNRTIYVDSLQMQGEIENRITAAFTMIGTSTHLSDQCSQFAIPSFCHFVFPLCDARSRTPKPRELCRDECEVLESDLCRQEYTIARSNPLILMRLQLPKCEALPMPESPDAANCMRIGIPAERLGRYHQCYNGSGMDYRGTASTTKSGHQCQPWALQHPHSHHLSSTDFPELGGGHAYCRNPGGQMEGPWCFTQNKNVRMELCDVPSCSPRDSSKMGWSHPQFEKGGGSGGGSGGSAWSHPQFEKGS

| Binder | binding result [1] | binding result [2] | binding result [3] |
| --- | --- | --- | --- |
| B1 | no binding | binds | – |
| B2 | no binding | binds | – |
| B3 | no binding | binds | – |
| B4 | – | – | binds |
| B5 | no binding | – | – |
| B6 | no binding | binds | – |
| B7 | no binding | binds | – |
